Where a chain is given by its changes, count along the chain named. Names may count otherwise.
T1: FcγRIIb (UniProt P31994 46-217, limits assumed)
T1 sequence (looked up): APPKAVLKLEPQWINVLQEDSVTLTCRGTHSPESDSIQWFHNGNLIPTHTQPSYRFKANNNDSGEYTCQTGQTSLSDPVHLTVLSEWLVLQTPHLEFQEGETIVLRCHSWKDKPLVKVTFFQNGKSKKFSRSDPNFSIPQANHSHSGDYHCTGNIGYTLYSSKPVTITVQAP

B1: G1114 (Fc fusion)
chain: EPKSCDKTHTCPPCPAPPLLQGPSVFLFPPKPKDTLMISRTPEVTCVVVDVDFEDPEVKFNWYVDGVEVHNAKTKPREEQYNSTYRVVSVLTVLHQDWLNGKEYKCKVTNKALPAPIEKTISKAKGQPREPQVYTLPPSRDELTKNQVSLTCLVKGFYPSDIAVEWESNGQPENNYKTTPPVLDSDGSFFLYSKLTVDKSRWQQGNVFSCSVMHEALHNHYTQKSLSLSPGKERKCCVECPPCP
notes: G045c background, E233P/G236Q/S267D/H268F/S324T; leader 1-20 cleaved
B2: G1122 (Fc fusion)
chain: B1 chain with Q21H, D52Q
notes: G045c background, E233P/G236H/S267Q/H268F/S324T; leader 1-20 cleaved
B3: G1110 (Fc fusion)
chain: B1 chain with Q21D, D52R
notes: G045c background, E233P/G236D/S267R/H268F/S324T; leader 1-20 cleaved
B4: G1129 (Fc fusion)
chain: B1 chain with Q21N, D52E
notes: G045c background, E233P/G236N/S267E/H268F/S324T; leader 1-20 cleaved
B5: G1101 (Fc fusion)
chain: B1 chain with Q21G
notes: G045c background, E233P/S267D/H268F/S324T; leader 1-20 cleaved
B6: G1088 (Fc fusion)
chain: B1 chain with D52S
notes: G045c background, E233P/G236Q/H268F/S324T; leader 1-20 cleaved
B7: G1111 (Fc fusion)
chain: B1 chain with Q21D, D52Q
notes: G045c background, E233P/G236D/S267Q/H268F/S324T; leader 1-20 cleaved
B8: G1095 (Fc fusion)
chain: B1 chain with P18E, Q21G, D52N, T84A
notes: G045c background, S267N/H268F/S324T/T299A; leader 1-20 cleaved
B9: G1115 (Fc fusion)
chain: B1 chain with Q21E, D52R
notes: G045c background, E233P/G236E/S267R/H268F/S324T; leader 1-20 cleaved
B10: G1125 (Fc fusion)
chain: B1 chain with Q21G, D52H
notes: G045c background, E233P/S267H/H268F/S324T; leader 1-20 cleaved
B11: G1082 (Fc fusion)
chain: B1 chain with Q21H, D52S
notes: G045c background, E233P/G236H/H268F/S324T; leader 1-20 cleaved
B12: G1075 (Fc fusion)
chain: B1 chain with P18E, Q21G, D52Q, N82A
notes: G045c background, S267Q/H268F/S324T/N297A; leader 1-20 cleaved
B13: G1104 (Fc fusion)
chain: B1 chain with Q21D, D52S
notes: G045c background, E233P/G236D/H268F/S324T; leader 1-20 cleaved
B14: G1105 (Fc fusion)
chain: B1 chain with Q21N, D52S
notes: G045c background, E233P/G236N/H268F/S324T; leader 1-20 cleaved
B15: G1094 (Fc fusion)
chain: B1 chain with P18E, Q21G, D52Q, T84A
notes: G045c background, S267Q/H268F/S324T/T299A; leader 1-20 cleaved
B16: G1131 (Fc fusion)
chain: B1 chain with Q21R, D52N
notes: G045c background, E233P/G236R/S267N/H268F/S324T; leader 1-20 cleaved
B17: G1117 (Fc fusion)
chain: B1 chain with Q21D
notes: G045c background, E233P/G236D/S267D/H268F/S324T; leader 1-20 cleaved
B18: G1107 (Fc fusion)
chain: B1 chain with P18E, Q21G, D52H, T84A
notes: G045c background, S267H/H268F/S324T/T299A; leader 1-20 cleaved
B19: G1108 (Fc fusion)
chain: B1 chain with Q21G, D52N
notes: G045c background, E233P/S267N/H268F/S324T; leader 1-20 cleaved
B20: G1103 (Fc fusion)
chain: B1 chain with Q21E, D52S
notes: G045c background, E233P/G236E/H268F/S324T; leader 1-20 cleaved
B21: G1102 (Fc fusion)
chain: B1 chain with Q21G, D52Q
notes: G045c background, E233P/S267Q/H268F/S324T; leader 1-20 cleaved
B22: G1068 (Fc fusion)
chain: B1 chain with P18E, Q21G, D52E, T84A
notes: G045c background, S267E/H268F/S324T/T299A; leader 1-20 cleaved
B23: G1074 (Fc fusion)
chain: B1 chain with P18E, Q21G, N82A
notes: G045c background, S267D/H268F/S324T/N297A; leader 1-20 cleaved
B24: G1118 (Fc fusion)
chain: B1 chain with D52Q
notes: G045c background, E233P/G236Q/S267Q/H268F/S324T; leader 1-20 cleaved
B25: G1130 (Fc fusion)
chain: B1 chain with Q21N, D52K
notes: G045c background, E233P/G236N/S267K/H268F/S324T; leader 1-20 cleaved
B26: G1124 (Fc fusion)
chain: B1 chain with Q21K, D52K
notes: G045c background, E233P/G236K/S267K/H268F/S324T; leader 1-20 cleaved
B27: G1128 (Fc fusion)
chain: B1 chain with Q21K, D52N
notes: G045c background, E233P/G236K/S267N/H268F/S324T; leader 1-20 cleaved
B28: G1089 (Fc fusion)
chain: B1 chain with Q21R, D52S
notes: G045c background, E233P/G236R/H268F/S324T; leader 1-20 cleaved
B29: G1092 (Fc fusion)
chain: B1 chain with P18E, Q21G, T84A
notes: G045c background, S267D/H268F/S324T/T299A; leader 1-20 cleaved
B30: G1106 (Fc fusion)
chain: B1 chain with Q21K, D52S
notes: G045c background, E233P/G236K/H268F/S324T; leader 1-20 cleaved
B31: G1120 (Fc fusion)
chain: B1 chain with Q21R, D52Q
notes: G045c background, E233P/G236R/S267Q/H268F/S324T; leader 1-20 cleaved
B32: G1121 (Fc fusion)
chain: B1 chain with Q21D, D52K
notes: G045c background, E233P/G236D/S267K/H268F/S324T; leader 1-20 cleaved
B33: G1069 (Fc fusion)
chain: B1 chain with P18E, Q21G, D52S, N82A
notes: G045c background, H268F/S324T/N297A; leader 1-20 cleaved

These binders were tested against C1q (UniProt P02745 23-245; P02746 28-253; P02747 29-245) (assay: cell-based or functional assay).
Chain of C1q (P02745 23-245 limits assumed, chain 1 of 3): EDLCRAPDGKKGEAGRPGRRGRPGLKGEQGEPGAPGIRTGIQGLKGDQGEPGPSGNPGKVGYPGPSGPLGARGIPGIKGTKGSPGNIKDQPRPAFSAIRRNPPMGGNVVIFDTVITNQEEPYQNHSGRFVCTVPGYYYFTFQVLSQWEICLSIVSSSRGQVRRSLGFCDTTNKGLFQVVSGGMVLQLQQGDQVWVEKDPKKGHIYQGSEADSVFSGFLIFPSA
Chain of C1q (P02746 28-253 limits assumed, chain 2 of 3): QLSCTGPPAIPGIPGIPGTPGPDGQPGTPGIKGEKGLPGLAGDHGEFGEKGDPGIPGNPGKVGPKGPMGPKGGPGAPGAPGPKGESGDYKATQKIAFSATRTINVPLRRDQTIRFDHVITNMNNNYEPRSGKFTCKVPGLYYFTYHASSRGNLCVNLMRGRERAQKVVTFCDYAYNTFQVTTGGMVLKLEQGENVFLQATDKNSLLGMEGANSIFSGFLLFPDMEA
Chain of C1q (P02747 29-245 limits assumed, chain 3 of 3): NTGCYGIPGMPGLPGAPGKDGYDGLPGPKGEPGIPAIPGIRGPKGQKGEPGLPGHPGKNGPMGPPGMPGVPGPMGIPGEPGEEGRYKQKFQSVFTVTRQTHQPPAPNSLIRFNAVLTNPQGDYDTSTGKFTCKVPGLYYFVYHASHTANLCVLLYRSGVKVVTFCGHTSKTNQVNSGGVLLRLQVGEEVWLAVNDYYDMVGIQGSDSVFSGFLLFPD

Row | CDC Inhibition (EC50, µg/mL) | Binder
1 | 5 µg/mL | B1
2 | 5 µg/mL | B2
3 | 25 µg/mL | B3
4 | 5 µg/mL | B4
5 | 5 µg/mL | B5
6 | 5 µg/mL | B6
7 | 5 µg/mL | B7
8 | 15 µg/mL | B8
9 | 50 µg/mL | B9
10 | 5 µg/mL | B10
11 | 5 µg/mL | B11
12 | 15 µg/mL | B12
13 | 5 µg/mL | B13
14 | 5 µg/mL | B14
15 | 12.5 µg/mL | B15
16 | 15 µg/mL | B16
17 | 5 µg/mL | B17
18 | 12.5 µg/mL | B18
19 | 5 µg/mL | B19
20 | 5 µg/mL | B20
21 | 7.5 µg/mL | B21

Each binder was assayed against T1, FcγRIIb (assay: BLI (Octet)).
Description: (§1) Binding of complement-preferential stradomers or parent stradomer G045c to FcγRI, FcγRIIb, FcγRIIIa, FcγRIIa, or FcRn was assessed. RU values of dissociation were measured by biolayer interferometry using a ForteBio Octet instrument. His-tagged receptor proteins were bound to the sensor tip in 1× kinetic analysis buffer from ForteBio after which the on rate of the receptor/protein was measured by transferring the sensor tip to a 1× kinetics buffer containing the purified stradomer of choice. Off rate was measured by transferring the sensor tip to a 1× kinetics buffer, and RU value was calculated from the measured maximum binding using the ForteBio software. Biolayer interferometry detects the binding between a ligand immobilized on the biosensor tip surface and an analyte in solution. When binding occurs it produces an increase in optical thickness at the biosensor tip, which results in a wavelength shift (detected as a response unit of “RU”). The maximum binding level (RU max) is the maximum possible amount of sample binding at equilibrium that saturates the amount of ligand on the sensor surface. The RU 300 is the residual sample binding after 300 seconds of dissociation and is useful to characterize the rate of dissociation of the test article from the test ligand.
(§2) For each stradomer in Tables 5-9, the level of canonical FcγR binding, complement C1q binding, and CDC inhibition were determined according to the methods described in Example 1.

Row | binding result | Binder
22 | binds | B22
23 | binds | B23
24 | binds | B1
25 | binds | B2
26 | binds | B4
27 | binds | B5
28 | binds | B6
29 | binds | B7
30 | binds | B8
31 | binds | B10
32 | binds | B24
33 | binds | B25
34 | binds | B26
35 | binds | B27
36 | binds | B13
37 | binds | B14
38 | binds | B15
39 | binds | B17
40 | binds | B28
41 | binds | B18
42 | binds | B19
43 | binds | B29
44 | binds | B20
45 | binds | B21

What follows are binders tested against T2, FcγRI (UniProt P12314 16-288) (assay: BLI (Octet)).
T2 construct: also called CD64
Description: as §1, §2

T2 sequence (P12314 16-288 limits assumed): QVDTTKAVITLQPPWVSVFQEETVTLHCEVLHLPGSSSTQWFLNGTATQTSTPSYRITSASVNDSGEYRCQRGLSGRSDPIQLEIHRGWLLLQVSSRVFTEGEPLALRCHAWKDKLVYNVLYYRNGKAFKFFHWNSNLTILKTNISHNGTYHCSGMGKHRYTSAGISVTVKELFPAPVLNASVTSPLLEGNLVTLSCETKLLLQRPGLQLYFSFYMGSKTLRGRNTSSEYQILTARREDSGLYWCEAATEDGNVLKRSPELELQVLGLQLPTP

Row | binding result | Binder
46 | binds | B22
47 | binds | B23
48 | binds | B1
49 | binds | B2
50 | binds | B3
51 | binds | B4
52 | binds | B5
53 | binds | B6
54 | binds | B7
55 | binds | B8
56 | binds | B30
57 | binds | B9
58 | binds | B10
59 | binds | B31
60 | binds | B24
61 | binds | B25
62 | binds | B11

Row | binding result | Binder
63 | binds | B32
64 | binds | B12
65 | binds | B33
66 | binds | B26
67 | binds | B27
68 | binds | B13
69 | binds | B14
70 | binds | B15
71 | binds | B16
72 | binds | B17
73 | binds | B28
74 | binds | B18
75 | binds | B19
76 | binds | B29
77 | binds | B20
78 | binds | B21

From patent US20250011433A1 (GLIKNIK, published 2025)
